We go through six variants from IntAct's records for PubMed 31515488.

To fix the notation:
B1: Isoform 1 of Nuclear RNA export factor 3 (Homo sapiens), Q9H4D5-1 (parent)
chain: MSLPSGHTTGHTDQVVQRRARCWDIYQRRFSSRSEPVNPGMHSSSHQQQDGDAAMHGAHMDSPVRYTPYTISPYNRKGSFRKQDQTHVNMEREQKPPERRMEGNMPDGTLGSWFKITVPFGIKYNEKWLLNLIQNECSVPFVPVEFHYENMHASFFVENASIAYALKNVSGKIWDEDNEKISIFVNPAGIPHFVHRELKSEKVEQIKLAMNQQCDVSQEALDIQRLPFYPDMVNRDTKMASNPRKCMAASLDVHEENIPTVMSAGEMDKWKGIEPGEKCADRSPVCTTFSDTSSNINSILELFPKLLCLDGQQSPRATLCGTEAHKRLPTCKGSFFGSEMLKNLVLQFLQQYYLIYDSGDRQGLLSAYHDEACFSLSIPFNPEDSAPSSFCKFFKDSRNIKILKDPYLRGELLKHTKLDIVDSLSALPKTQHDLSSFLVDMWYQTEWMLCFSVNGVFKEVEGQSQGSVLAFTRTFIATPGSSSSLCIVNDKLFVRDTSHQGTQSALFTLVPTAFSSSVPAFSQEQQKMLPS
partner: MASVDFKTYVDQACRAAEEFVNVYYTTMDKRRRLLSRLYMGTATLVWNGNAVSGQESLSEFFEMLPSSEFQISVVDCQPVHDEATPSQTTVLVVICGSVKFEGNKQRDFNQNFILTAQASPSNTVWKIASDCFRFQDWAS
B2: Sodium channel modifier 1 (Homo sapiens), Q9BWG6 (parent)
chain: MSFKREGDDWSQLNVLKKRRVGDLLASYIPEDEALMLRDGRFACAICPHRPVLDTLAMLTAHRAGKKHLSSLQLFYGKKQPGKERKQNPKHQNELRREETKAEAPLLTQTRLITQSALHRAPHYNSCCRRKYRPEAPGPSVSLSPMPPSEVKLQSGKISREPEPAAGPQAEESATVSAPAPMSPTRRRALDHYLTLRSSGWIPDGRGRWVKDENVEFDSDEEEPPDLPLD
partner: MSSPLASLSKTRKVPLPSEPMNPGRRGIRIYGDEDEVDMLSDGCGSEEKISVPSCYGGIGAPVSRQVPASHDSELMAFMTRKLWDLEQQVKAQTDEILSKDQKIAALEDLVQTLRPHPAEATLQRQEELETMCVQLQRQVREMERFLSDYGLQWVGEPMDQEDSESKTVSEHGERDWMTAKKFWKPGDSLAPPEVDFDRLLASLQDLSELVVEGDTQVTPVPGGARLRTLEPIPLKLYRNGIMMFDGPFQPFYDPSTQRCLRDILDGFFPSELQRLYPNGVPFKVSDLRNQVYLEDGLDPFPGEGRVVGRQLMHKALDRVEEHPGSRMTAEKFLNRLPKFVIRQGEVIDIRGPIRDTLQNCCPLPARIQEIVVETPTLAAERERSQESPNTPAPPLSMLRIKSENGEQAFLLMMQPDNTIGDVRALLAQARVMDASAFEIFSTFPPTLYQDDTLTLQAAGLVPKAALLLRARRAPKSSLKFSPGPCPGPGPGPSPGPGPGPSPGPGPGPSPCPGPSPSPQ
B3: Protein FAM9B (Homo sapiens), Q8IZU0 (parent)
chain: MAAWGKKHAGKDPVRDECEERNRFTETREEDVTDEHGEREPFAETDEHTGANTKKPEDTAEDLTAKRKRMKMDKTCSKTKNKSKHALRKKQLKRQKRDYIHSLKLLNVLEEYITDEQKEEEEEEGEEEELIRIFQEQQKKWQQYRSVRRERLKEMKLLRDQFVKALEDFEDLCDRVFSDEDSELDN
partner: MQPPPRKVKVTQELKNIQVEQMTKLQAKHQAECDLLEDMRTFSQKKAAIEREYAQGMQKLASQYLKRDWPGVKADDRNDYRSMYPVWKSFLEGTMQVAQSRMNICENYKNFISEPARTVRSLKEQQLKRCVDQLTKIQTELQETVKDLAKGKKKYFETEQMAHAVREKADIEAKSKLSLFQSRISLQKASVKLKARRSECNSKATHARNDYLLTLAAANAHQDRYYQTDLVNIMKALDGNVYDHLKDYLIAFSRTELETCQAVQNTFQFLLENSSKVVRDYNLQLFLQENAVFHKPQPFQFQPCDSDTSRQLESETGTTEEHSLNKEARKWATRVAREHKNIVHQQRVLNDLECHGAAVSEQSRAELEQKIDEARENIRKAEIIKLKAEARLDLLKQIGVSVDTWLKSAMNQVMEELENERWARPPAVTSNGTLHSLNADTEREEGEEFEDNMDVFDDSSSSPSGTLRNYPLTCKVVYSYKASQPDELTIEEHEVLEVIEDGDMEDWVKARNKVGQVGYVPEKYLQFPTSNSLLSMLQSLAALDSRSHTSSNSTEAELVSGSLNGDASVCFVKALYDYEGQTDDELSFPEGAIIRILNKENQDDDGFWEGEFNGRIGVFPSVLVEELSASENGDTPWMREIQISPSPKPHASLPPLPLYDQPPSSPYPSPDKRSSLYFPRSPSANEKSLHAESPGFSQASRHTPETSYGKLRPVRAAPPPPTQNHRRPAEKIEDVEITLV
B4: WW domain-containing adapter protein with coiled-coil (Homo sapiens), Q9BTA9-1 (parent)
chain: MVMYARKQQRLSDGCHDRRGDSQPYQALKYSSKSHPSSGDHRHEKMRDAGDPSPPNKMLRRSDSPENKYSDSTGHSKAKNVHTHRVRERDGGTSYSPQENSHNHSALHSSNSHSSNPSNNPSKTSDAPYDSADDWSEHISSSGKKYYYNCRTEVSQWEKPKEWLEREQRQKEANKMAVNSFPKDRDYRREVMQATATSGFASGMEDKHSSDASSLLPQNILSQTSRHNDRDYRLPRAETHSSSTPVQHPIKPVVHPTATPSTVPSSPFTLQSDHQPKKSFDANGASTLSKLPTPTSSVPAQKTERKESTSGDKPVSHSCTTPSTSSASGLNPTSAPPTSASAVPVSPVPQSPIPPLLQDPNLLRQLLPALQATLQLNNSNVDISKINEVLTAAVTQASLQSIIHKFLTAGPSAFNITSLISQAAQLSTQAQPSNQSPMSLTSDASSPRSYVSPRISTPQTNTVPIKPLISTPPVSSQPKVSTPVVKQGPVSQSATQQPVTADKQQGHEPVSPRSLQRSSSQRSPSPGPNHTSNSSNASNATVVPQNSSARSTCSLTPALAAHFSENLIKHVQGWPADHAEKQASRLREEAHNMGTIHMSEICTELKNLRSLVRVCEIQATLREQRILFLRQQIKELEKLKNQNSFMV
B5: Centrosomal protein of 55 kDa (Homo sapiens), Q53EZ4 (parent)
chain: MSSRSTKDLIKSKWGSKPSNSKSETTLEKLKGEIAHLKTSVDEITSGKGKLTDKERHRLLEKIRVLEAEKEKNAYQLTEKDKEIQRLRDQLKARYSTTTLLEQLEETTREGERREQVLKALSEEKDVLKQQLSAATSRIAELESKTNTLRLSQTVAPNCFNSSINNIHEMEIQLKDALEKNQQWLVYDQQREVYVKGLLAKIFELEKKTETAAHSLPQQTKKPESEGYLQEEKQKCYNDLLASAKKDLEVERQTITQLSFELSEFRRKYEETQKEVHNLNQLLYSQRRADVQHLEDDRHKTEKIQKLREENDIARGKLEEEKKRSEELLSQVQFLYTSLLKQQEEQTRVALLEQQMQACTLDFENEKLDRQHVQHQLHVILKELRKARNQITQLESLKQLHEFAITEPLVTFQGETENREKVAASPKSPTAALNESLVECPKCNIQYPATEHRDLLVHVEYCSK

The variants in the first experiment derive from B1. As to conditions: with nxt1_human NXT1, Q9UKK6.
As for T9K, the “effect of a mutation on the interaction” value is on record as “with no effect”.

The variants in another experiment derive from B1. As to conditions: with nxt1_human NXT1, Q9UKK6. This is another data set of the same source.
Regarding R409W, the “effect of a mutation on the interaction” value was “disrupting interaction strength”.

Variants of B2 are the subject of the next experiment. As to conditions: with ubx11_human UBXN11, Q5T124.
A174V: the “effect of a mutation on the interaction” value is on record as “with no effect”.

In another experiment the parent is B3. As to conditions: with fcsd2_human FCHSD2, O94868.
For R23H, the “effect of a mutation on the interaction” value is “with no effect”.

The variants in the next experiment derive from B4. As to conditions: with KRT15, P19012.
Sequence of KRT15, P19012 (P19012 whole entry): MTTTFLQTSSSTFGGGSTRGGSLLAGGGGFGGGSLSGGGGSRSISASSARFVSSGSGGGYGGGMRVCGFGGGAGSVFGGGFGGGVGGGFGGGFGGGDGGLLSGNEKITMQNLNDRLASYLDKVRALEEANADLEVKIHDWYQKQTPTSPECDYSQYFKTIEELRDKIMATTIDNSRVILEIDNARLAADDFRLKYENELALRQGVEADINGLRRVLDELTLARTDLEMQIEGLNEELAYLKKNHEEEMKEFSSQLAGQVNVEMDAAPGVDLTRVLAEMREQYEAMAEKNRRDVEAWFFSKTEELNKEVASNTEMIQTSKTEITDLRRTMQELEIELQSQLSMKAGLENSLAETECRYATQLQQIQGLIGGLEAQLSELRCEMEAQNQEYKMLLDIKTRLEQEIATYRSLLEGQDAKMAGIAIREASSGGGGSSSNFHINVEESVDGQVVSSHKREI
As to S475L, the “effect of a mutation on the interaction” value is listed as “with no effect”.

The variants in another experiment derive from B4. As to conditions: with nf2l2_human NFE2L2, Q16236.
Sequence of nf2l2_human NFE2L2, Q16236 (Q16236 whole entry): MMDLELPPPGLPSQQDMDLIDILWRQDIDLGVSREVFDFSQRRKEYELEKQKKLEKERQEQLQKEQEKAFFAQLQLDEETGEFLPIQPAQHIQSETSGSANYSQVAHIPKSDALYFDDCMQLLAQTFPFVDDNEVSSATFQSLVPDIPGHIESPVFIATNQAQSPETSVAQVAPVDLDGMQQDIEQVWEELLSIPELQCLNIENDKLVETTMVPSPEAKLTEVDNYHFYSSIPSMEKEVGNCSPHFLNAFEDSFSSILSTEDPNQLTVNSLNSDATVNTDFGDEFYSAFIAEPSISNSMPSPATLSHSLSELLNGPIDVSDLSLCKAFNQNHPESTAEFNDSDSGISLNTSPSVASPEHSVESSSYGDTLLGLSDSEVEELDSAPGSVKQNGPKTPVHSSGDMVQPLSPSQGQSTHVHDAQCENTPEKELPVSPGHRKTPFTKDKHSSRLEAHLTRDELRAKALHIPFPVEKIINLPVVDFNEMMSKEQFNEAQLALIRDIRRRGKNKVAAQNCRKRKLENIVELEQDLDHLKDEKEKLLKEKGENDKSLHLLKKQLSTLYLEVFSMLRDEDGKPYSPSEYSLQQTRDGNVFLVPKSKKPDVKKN
On to S475L, for which the “effect of a mutation on the interaction” value is “with no effect”.

Variants of B4 are the subject of another experiment. As to conditions: with mtus2_human MTUS2, Q5JR59.
Sequence of mtus2_human MTUS2, Q5JR59 (Q5JR59 whole entry): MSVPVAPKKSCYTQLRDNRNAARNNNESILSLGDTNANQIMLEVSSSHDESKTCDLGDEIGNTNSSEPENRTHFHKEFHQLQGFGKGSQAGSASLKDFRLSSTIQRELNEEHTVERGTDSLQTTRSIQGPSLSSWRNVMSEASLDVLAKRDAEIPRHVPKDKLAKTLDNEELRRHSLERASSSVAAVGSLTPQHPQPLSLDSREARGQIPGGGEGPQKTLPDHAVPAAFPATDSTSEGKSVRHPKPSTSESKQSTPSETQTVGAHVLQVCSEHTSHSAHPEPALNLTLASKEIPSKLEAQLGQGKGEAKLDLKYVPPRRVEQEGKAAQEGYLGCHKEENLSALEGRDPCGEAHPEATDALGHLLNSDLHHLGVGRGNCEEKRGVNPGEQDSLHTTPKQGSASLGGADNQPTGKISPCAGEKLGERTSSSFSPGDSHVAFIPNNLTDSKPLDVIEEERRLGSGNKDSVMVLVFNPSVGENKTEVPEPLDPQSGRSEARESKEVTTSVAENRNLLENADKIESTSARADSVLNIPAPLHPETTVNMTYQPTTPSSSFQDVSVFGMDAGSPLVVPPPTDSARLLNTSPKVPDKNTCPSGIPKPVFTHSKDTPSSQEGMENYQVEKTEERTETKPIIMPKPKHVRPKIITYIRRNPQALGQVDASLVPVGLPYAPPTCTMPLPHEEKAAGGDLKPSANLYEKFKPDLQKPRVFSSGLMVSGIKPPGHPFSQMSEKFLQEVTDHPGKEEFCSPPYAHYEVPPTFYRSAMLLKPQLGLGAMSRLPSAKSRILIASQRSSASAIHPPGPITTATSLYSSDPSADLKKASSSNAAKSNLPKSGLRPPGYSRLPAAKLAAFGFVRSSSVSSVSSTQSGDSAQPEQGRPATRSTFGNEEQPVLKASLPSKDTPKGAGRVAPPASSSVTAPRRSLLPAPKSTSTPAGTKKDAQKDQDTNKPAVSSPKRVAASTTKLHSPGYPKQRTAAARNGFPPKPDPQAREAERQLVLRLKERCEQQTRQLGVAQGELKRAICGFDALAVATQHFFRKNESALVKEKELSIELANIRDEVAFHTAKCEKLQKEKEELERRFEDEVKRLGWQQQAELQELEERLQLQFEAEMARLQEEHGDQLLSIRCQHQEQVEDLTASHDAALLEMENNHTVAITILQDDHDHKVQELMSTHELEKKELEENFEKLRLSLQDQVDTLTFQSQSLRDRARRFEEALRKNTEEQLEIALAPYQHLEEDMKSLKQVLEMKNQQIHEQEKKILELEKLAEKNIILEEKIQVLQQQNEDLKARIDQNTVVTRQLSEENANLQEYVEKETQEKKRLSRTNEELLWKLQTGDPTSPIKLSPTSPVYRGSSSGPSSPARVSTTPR
With S475L, the “effect of a mutation on the interaction” value is “with no effect”.

Variants of B5 are the subject of a further experiment. As to conditions: with dpolm_human POLM.
On to H57Q, for which the “effect of a mutation on the interaction” value was “with no effect”.

The variants in a further experiment derive from B5. As to conditions: with tead4_human TEAD4, Q15561.
Sequence of tead4_human TEAD4, Q15561 (Q15561 whole entry): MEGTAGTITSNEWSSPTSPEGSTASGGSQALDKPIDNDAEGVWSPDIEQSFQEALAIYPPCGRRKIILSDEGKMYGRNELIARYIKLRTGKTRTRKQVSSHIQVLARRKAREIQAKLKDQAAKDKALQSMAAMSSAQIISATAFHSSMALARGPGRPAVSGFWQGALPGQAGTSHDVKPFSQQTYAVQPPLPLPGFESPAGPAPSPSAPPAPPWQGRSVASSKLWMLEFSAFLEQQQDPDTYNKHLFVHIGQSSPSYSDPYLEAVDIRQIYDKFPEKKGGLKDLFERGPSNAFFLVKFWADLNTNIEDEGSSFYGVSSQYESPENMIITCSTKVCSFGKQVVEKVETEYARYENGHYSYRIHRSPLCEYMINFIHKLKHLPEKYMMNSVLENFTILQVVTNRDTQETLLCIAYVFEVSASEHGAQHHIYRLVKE
In the case of H57Q, the “effect of a mutation on the interaction” value was “with no effect”.

The next experiment covers variants of B5. As to conditions: with anx11_human ANXA11, P50995.
Sequence of anx11_human ANXA11, P50995 (P50995 whole entry): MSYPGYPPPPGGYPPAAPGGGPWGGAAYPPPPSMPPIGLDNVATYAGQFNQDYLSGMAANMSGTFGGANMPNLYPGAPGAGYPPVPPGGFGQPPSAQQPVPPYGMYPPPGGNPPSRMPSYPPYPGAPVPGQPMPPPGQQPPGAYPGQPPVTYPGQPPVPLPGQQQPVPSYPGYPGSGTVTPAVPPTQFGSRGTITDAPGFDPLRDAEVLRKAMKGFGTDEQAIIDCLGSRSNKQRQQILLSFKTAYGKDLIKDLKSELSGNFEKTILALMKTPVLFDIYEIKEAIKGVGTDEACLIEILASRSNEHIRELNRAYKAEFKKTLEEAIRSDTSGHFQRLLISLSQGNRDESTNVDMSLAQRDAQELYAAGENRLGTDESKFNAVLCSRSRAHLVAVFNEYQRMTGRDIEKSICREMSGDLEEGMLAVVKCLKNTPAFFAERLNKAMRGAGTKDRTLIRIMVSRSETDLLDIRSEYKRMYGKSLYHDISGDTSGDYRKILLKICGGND
Take H57Q: the “effect of a mutation on the interaction” value is reported as “with no effect”.

Variants of B5 are the subject of a further experiment. As to conditions: with pdc6i_human PDCD6IP.
For H57Q, the “effect of a mutation on the interaction” value is “with no effect”.
